The target of test [1] is T1, cynomolgus PD-1-His (cynomolgus monkey).
T1 chain: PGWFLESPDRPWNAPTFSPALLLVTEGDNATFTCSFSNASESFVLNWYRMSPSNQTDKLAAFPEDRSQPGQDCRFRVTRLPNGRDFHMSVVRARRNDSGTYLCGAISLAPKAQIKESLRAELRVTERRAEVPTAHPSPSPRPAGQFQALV
Kind of test: sensorgram, panel Cyno PD-1; Octet per legend paragraph 199, axes printed as Response (RU) against Time. A general note: Biolayer interferometry detects binding as a change in optical thickness at a sensor tip.

Test [2] deals with T2, human PD-1-His (human, UniProt Q15116 25-167, limits assumed).
T2 construct: Antigen of the Octet assays; not shown: His tag
T2 sequence (Q15116 25-167 limits assumed): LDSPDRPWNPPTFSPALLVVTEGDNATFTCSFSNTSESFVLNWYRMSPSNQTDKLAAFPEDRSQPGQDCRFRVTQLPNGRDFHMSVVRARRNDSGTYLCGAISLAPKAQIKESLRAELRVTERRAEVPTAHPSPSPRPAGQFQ
The experiment in a line: sensorgram, panel Human PD-1; Octet per legend paragraph 199, axes printed as Response (RU) against Time (s).

Test [3] deals with T1, cynomolgus PD-1-His. The experiment in a line: sensorgram, panel Cyno PD-1; Octet per legend paragraph 199, axes printed as Response (RU) against Time.
Test [4] has as its target T2, human PD-1-His. The experiment in a line: sensorgram, panel Human PD-1; Octet per legend paragraph 199, axes printed as Response (RU) against Time (s). The source holds these as a separate data set.
Test [5] addresses T2, human PD-1-His. The experiment in a line: Octet (BLI) sensorgram; XENP29708 loaded on the biosensor, analyte Sample ID XENP15593 at 300, 30, 3 nM [Cont.].
Test [6] concerns the target T2, human PD-1-His. Kind of test: Octet (BLI); XENP29706 loaded on the biosensor, analyte Sample ID XENP15593 at 300, 30, 3 nM; KD (M) printed in the legend under the plot.
The target in test [7] is T2, human PD-1-His. The experiment in a line: Octet (BLI) sensorgram; XENP29710 loaded on the biosensor, analyte Sample ID XENP15593 at 300, 30, 3 nM [Cont.].
Test [8] addresses T2, human PD-1-His. Kind of test: Octet (BLI) sensorgram; XENP29714 loaded on the biosensor, analyte Sample ID XENP15593 at 300, 30, 3 nM [Cont.].
Test [9] has as its target T2, human PD-1-His. The experiment in a line: Octet (BLI) sensorgram; XENP29713 loaded on the biosensor, analyte Sample ID XENP15593 at 300, 30, 3 nM [Cont.].
Test [10] deals with T2, human PD-1-His. Kind of test: Octet (BLI) sensorgram; XENP29712 loaded on the biosensor, analyte Sample ID XENP15593 at 300, 30, 3 nM [Cont.].
Test [11] addresses T2, human PD-1-His. Kind of test: Octet affinity screen; bivalent IgG1 format; reference mAb C[PD-1]_H1L1.
Test [12] has as its target T2, human PD-1-His. Kind of test: Octet.
For test [13], the target named is T2, human PD-1-His. Kind of test: Octet (BLI) sensorgram; XENP29711 loaded on the biosensor, analyte Sample ID XENP15593 at 300, 30, 3 nM [Cont.].

Numbering of substitutions follows the chain as printed. Names and notes keep the numbering of the source. Like-named read-outs stand apart in the source and are kept apart here.

For orientation: Kd means the equilibrium constant for the complex coming apart. A higher Kd goes with lower affinity. Usually koff stands for the first-order rate constant of dissociation. Usually kon stands for the second-order rate constant of association.

B1: XENP31986 (mAb C H1_L1.1 x IL-15[D30N/E64Q/N65D/N71Q/N79Q/N112Q] w/(G4A) Linker) (Fc fusion)
chain: ITCPPPMSVEHADIWVKSYSLYSRERYICNSGFKRKAGTSSLTECVLNKATNVAHWTTPSLKCIRGGGGAGGGGAGGGGAGGGGAGGGGANWVNVISDLKKIEDLIQSMHIDATLYTESNVHPSCKVTAMKCFLLELQVISLESGDASIHDTVQDLIILAQNSLSSNGQVTESGCKECEELEEKNIKEFLQSFVHIVQMFIQTSEPKSSDKTHTCPPCPAPPVAGPSVFLFPPKPKDTLMISRTPEVTCVVVDVKHEDPEVKFNWYVDGVEVHNAKTKPREEEYNSTYRVVSVLTVLHQDWLNGKEYKCKVSNKALPAPIEKTISKAKGQPREPQVYTLPPSREEMTKNQVSLTCDVSGFYPSDIAVEWESDGQPENNYKTTPPVLDSDGSFFLYSKLTVDKSRWEQGDVFSCSVLHEALHSHYTQKSLSLSPGK
heavy: EVQLVESGGGLVQPGGSLRLSCAASGFTFSSFGMHWVRQAPGKGLEWVSYISSGSSIIYYADSVKGRFTISRDNAKNSLYLQMNSLRAEDTAVYYCARGGRLVWSPDYWGQGTLVTVSSASTKGPSVFPLAPSSKSTSGGTAALGCLVKDYFPEPVTVSWNSGALTSGVHTFPAVLQSSGLYSLSSVVTVPSSSLGTQTYICNVNHKPSNTKVDKKVEPKSCDKTHTCPPCPAPPVAGPSVFLFPPKPKDTLMISRTPEVTCVVVDVKHEDPEVKFNWYVDGVEVHNAKTKPREEQYNSTYRVVSVLTVLHQDWLNGKEYKCKVSNKALPAPIEKTISKAKGQPREPQVYTLPPSREQMTKNQVKLTCLVKGFYPSDIAVEWESNGQPENNYKTTPPVLDSDGSFFLYSKLTVDKSRWQQGNVFSCSVLHEALHSHYTQKSLSLSPGK
light: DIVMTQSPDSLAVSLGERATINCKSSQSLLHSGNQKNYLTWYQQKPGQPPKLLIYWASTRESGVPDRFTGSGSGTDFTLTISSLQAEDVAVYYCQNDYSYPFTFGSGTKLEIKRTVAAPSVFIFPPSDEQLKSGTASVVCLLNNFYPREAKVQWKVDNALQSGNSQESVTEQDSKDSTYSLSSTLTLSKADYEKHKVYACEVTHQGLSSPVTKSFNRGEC
notes: scIL-15/Rα x Fab format
For the molecule B1, the equilibrium dissociation constant (Kd) in the test with cynomolgus PD-1-His [1] is 4.5 nM; with human PD-1-His [2], 4.3 nM.

B2: XENP32435 (PD-1-targeted IL-15/Rα-Fc having Trp engineered/affinity repaired mAb C[PD1]_H1.176_L1.140 and IL-15[D30N/E64Q/N65D/N71Q/N79Q/N112Q]) (Fc fusion)
chain: B1 chain
heavy: B1 heavy with F32L, W104F
light: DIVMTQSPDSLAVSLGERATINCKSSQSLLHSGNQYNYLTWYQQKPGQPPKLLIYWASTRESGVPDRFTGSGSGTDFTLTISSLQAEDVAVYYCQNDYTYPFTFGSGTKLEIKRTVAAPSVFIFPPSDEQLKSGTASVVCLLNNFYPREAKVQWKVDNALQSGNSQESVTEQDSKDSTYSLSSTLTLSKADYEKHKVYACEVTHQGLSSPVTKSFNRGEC
Turning to B2, the Kd turned out to be 2.7 nM in the test with cynomolgus PD-1-His [3] and 2.8 nM in the test with human PD-1-His [4].

B3: XENP29708 (W100Y) (antibody, V domains shown)
VH: EVQLVESGGGLVQPGGSLRLSCAASGFTFSSFGMHWVRQAPGKGLEWVSYISSGSSIIYYADSVKGRFTISRDNAKNSLYLQMNSLRAEDTAVYYCARGGRLVYSPDYWGQGTLVTVSS
VL: DIVMTQSPDSLAVSLGERATINCKSSQSLLNSGNQKNYLTWYQQKPGQPPKLLIYWASTRESGVPDRFTGSGSGTDFTLTISSLQAEDVAVYYCQNDYSYPFTFGSGTKLEIKR
notes: the panel label gives the substitution; also called mAb C[PD-1]_H1L1 W100Y (Kabat) variant; copies: 2 + 2
For B3, the binding result in the test with human PD-1-His [5] is “no binding (tested: 300 nM)”.

B4: XENP29706 (W100F) (antibody, V domains shown)
VH: B3 VH with Y104F
VL: B3 VL
notes: the panel label gives the substitution; also called mAb C[PD-1]_H1L1 W100F (Kabat) variant; copies: 2 + 2
With B4, the Kd with human PD-1-His [6] was determined as 309 nM.

B5: XENP29710 (W100H) (antibody, V domains shown)
VH: B3 VH with Y104H
VL: B3 VL
notes: the panel label gives the substitution; also called mAb C[PD-1]_H1L1 W100H (Kabat) variant; copies: 2 + 2
On to B5, for which the binding result with human PD-1-His [7] is “no binding (tested: 300 nM)”.

B6: XENP29714 (W100R) (antibody, V domains shown)
VH: B3 VH with Y104R
VL: B3 VL
notes: the panel label gives the substitution; also called mAb C[PD-1]_H1L1 W100R (Kabat) variant; copies: 2 + 2
For B6, the binding result in the test with human PD-1-His [8] is listed as “no binding (tested: 300 nM)”.

B7: XENP29713 (W100E) (antibody, V domains shown)
VH: B3 VH with Y104E
VL: B3 VL
notes: the panel label gives the substitution; also called mAb C[PD-1]_H1L1 W100E (Kabat) variant; copies: 2 + 2
Take B7: in the test with human PD-1-His [9], the binding result is listed as “no binding (tested: 300 nM)”.

B8: XENP29712 (W100S) (antibody, V domains shown)
VH: B3 VH with Y104S
VL: B3 VL
notes: the panel label gives the substitution; also called mAb C[PD-1]_H1L1 W100S (Kabat) variant; copies: 2 + 2
As for B8, the binding result with human PD-1-His [10] is on record as “no binding (tested: 300 nM)”.

B9: mAb C[PD-1]_H1_L1.1 (bivalent IgG1) (antibody, V domains shown)
VH: B3 VH with Y104W
VL: B3 VL with N31H
notes: Bivalent IgG1 format with E233P/L234V/L235A/G236_/S267K; copies: 2 + 2
For B9, the “fold improved affinity over WT” value with human PD-1-His [11] is > 2 fold. In the test with human PD-1-His [12], this molecule gave a Kd of 5.46 nM, an off-rate constant (koff) of 0.000532 s⁻¹ and a kon of 97300 M⁻¹ s⁻¹.

B10: mab_C[PD-1]_H1_L1.3 (bivalent IgG1) (antibody, V domains shown)
VH: B3 VH with Y104W
VL: B3 VL with N31S
notes: as for B9
In the case of B10, in the test with human PD-1-His [11], the “fold improved affinity over WT” value was > 2 fold. Also, in the test with human PD-1-His [12], the dissociation constant Kd is 10.8 nM, the koff was 0.00165 s⁻¹ and the association rate constant (kon) came to 153000 M⁻¹ s⁻¹.

B11: XENP29711 (W100Q) (antibody, V domains shown)
VH: B3 VH with Y104Q
VL: B3 VL
notes: the panel label gives the substitution; also called mAb C[PD-1]_H1L1 W100Q (Kabat) variant; copies: 2 + 2
Take B11: the binding result in the test with human PD-1-His [13] is reported as “no binding (tested: 300 nM)”.
